This is an account of results in PMC5581011.

Where two headings read alike, the source gives them in different places.

The target of one experiment is gimsilumab (human). Nature of the experiment: ELISA; data not shown; rituximab and gimsilumab with sCA125, binding of CD16a-biotin. Background: ELISA stands for enzyme-linked immunosorbent assay.
The next experiment deals with rituximab. Described as above.
The target in experiment [1] is mesothelin on CHO-MSLN cells (UniProt Q13421). Put plainly: absorption (depletion) of sCA125 on cells; sCA125 preparation absorbed on CHO-MSLN cells or CHO-K1 parental cells; what is left in the supernatant.
UniProt Q13421, sequence (Q13421 other isoform, or with tags, fused parts or gaps): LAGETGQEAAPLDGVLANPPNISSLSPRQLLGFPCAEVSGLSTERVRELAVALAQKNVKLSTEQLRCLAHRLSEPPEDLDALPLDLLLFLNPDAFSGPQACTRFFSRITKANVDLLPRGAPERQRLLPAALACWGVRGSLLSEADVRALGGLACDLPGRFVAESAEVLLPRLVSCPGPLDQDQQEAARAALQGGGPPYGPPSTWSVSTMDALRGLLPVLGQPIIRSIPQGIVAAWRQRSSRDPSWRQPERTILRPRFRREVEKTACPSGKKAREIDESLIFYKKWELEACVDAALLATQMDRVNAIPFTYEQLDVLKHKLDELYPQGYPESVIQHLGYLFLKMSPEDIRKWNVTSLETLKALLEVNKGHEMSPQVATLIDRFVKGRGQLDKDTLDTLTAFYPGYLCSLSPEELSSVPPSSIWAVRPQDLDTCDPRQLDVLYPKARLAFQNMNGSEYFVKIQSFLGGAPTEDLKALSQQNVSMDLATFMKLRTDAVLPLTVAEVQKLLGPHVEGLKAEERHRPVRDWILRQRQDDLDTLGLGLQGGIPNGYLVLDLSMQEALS
Experiment [2] has as its target farletuzumab, humanized IgG1 monoclonal antibody to folate receptor alpha (human (humanized IgG1)). Nature of the experiment: ELISA; unlabeled farletuzumab incubated alone or with sCA125 or HSA, probed with biotinylated CD16a, CD32a or CD64a; percent inhibition of Fc receptor binding compared to control.
The target is the same in experiment [3]. Described as above. The source holds these as a separate data set.

farletuzumab, humanized IgG1 monoclonal antibody to folate receptor alpha (human (humanized IgG1)), sequence (heavy, as listed by the source, chain 1 of 2): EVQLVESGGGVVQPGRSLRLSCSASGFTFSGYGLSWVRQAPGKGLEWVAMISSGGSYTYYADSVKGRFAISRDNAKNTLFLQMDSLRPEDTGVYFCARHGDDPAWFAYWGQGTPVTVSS
farletuzumab, humanized IgG1 monoclonal antibody to folate receptor alpha (human (humanized IgG1)), sequence (light, as listed by the source, chain 2 of 2): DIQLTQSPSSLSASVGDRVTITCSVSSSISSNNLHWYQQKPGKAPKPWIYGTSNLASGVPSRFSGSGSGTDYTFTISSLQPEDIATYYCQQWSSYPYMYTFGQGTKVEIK
gimsilumab (human), sequence (heavy, as listed by the source, chain 1 of 2): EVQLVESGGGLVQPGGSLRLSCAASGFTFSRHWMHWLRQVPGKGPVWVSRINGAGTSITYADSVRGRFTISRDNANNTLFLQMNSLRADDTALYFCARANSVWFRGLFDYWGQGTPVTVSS
gimsilumab (human), sequence (light, as listed by the source, chain 2 of 2): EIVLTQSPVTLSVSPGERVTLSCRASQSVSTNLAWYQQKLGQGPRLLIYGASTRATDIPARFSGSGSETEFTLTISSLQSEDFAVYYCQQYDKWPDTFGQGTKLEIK

As for “soluble CA125 (sCA125), tumor-shed antigen CA125/MUC16 (from UniProt Q8WXI7 1-14507) (natural protein)”, the percent inhibition of CD16a-biotin binding to the antibody with gimsilumab (human) and with rituximab was under 50% throughout. Also, the percent of sCA125 removed by absorption on CHO-MSLN cells in experiment [1] amounted to 98%. The figures for the percent inhibition of CD16a-biotin binding to farletuzumab in experiment [2] and in experiment [3] were 38 to 50% and 46%, respectively. In addition, the percent inhibition of CD32a-biotin binding to farletuzumab in experiment [3] was 12%.
